Measurements taken from article PMC9482650, “Quantitative fragmentomics allow affinity mapping of interactomes” (Nature Communications, 2022).

T1: HTRA4, P83105
T1 sequence (P83105 378-476, limits assumed, looked up): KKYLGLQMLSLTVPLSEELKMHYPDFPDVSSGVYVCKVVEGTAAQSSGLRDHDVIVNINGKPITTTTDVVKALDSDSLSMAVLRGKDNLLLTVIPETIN

T2: DFNB31_3, Q9P202
T2 sequence (Q9P202 811-907, limits assumed, looked up): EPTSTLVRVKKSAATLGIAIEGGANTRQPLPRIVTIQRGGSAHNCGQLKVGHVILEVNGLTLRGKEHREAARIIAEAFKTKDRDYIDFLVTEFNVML

T3: MPP7, Q5T2T1
T3 sequence (Q5T2T1 134-230, limits assumed, looked up): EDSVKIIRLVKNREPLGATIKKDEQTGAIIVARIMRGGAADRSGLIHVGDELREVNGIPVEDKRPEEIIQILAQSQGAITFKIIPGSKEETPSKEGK

T4: DLG3_2, Q92796
T4 sequence (Q92796 221-321, limits assumed, looked up): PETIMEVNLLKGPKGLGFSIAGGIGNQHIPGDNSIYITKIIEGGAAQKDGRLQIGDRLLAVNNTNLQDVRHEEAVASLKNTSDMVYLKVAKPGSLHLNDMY

T5: PDZD2_2, O15018
T5 sequence (O15018 329-429, limits assumed, looked up): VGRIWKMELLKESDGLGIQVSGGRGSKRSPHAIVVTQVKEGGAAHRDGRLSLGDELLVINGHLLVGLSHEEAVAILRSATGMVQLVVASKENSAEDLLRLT

T6: DFNB31_2, Q9P202
T6 sequence (Q9P202 274-371, limits assumed, looked up): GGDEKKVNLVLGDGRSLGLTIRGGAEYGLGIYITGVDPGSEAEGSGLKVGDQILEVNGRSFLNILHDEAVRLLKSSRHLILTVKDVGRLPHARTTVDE

T7: RADIL, Q96JH8
T7 sequence (Q96JH8 971-1071, limits assumed, looked up): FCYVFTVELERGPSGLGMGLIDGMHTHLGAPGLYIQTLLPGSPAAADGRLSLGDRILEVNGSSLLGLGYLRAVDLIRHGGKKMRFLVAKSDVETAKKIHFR

T8: TX1BP3, O14907
T8 sequence (O14907 10-122, limits assumed, looked up): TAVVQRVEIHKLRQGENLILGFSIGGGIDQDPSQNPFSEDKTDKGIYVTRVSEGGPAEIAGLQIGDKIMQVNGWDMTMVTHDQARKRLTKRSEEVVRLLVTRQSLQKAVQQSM

T9: PTPN13_1, Q12923
T9 sequence (Q12923 1088-1188, limits assumed, looked up): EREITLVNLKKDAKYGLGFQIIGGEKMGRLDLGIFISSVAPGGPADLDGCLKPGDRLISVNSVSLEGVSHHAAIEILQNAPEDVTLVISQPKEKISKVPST

T10: DLG3_3, Q92796
T10 sequence (Q92796 374-475, limits assumed, looked up): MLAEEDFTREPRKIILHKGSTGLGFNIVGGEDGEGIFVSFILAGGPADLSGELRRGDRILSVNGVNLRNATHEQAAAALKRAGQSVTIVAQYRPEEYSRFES

T11: LIN7C, Q9NUP9
T11 sequence (Q9NUP9 88-185, limits assumed, looked up): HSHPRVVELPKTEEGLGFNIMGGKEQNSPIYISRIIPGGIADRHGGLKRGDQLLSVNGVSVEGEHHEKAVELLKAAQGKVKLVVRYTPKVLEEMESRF


Target: GRIP2_4, Q9C0E4
Sequence (Q9C0E4 446-548): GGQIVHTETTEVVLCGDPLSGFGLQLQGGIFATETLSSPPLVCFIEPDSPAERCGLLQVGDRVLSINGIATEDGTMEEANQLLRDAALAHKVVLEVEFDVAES
Experiment: holdup assay
Design: key: below the threshold = too weak to quantify, mostly under pKd 3.1 to 4
Conditions: plain residues with an end cap or a label only (N-terminal biotin on a linker: ado-ado)

PEEGKKQSQC [GAGE12J, A6NER3] was tested. Which pKd did it give?
The pKd was “below the threshold”.

Target: T1, HTRA4, P83105
Experiment: holdup assay
Design: key: below the threshold = too weak to quantify, mostly under pKd 3.1 to 4
Conditions: plain residues with an end cap or a label only (N-terminal biotin on a linker: ado-ado)

How did the pKd turn out when PEEGKKQSQC [GAGE12J, A6NER3] was run?
The pKd was “below the threshold”.

Target: MAGI2_2, Q86UL8
Sequence (Q86UL8 410-522): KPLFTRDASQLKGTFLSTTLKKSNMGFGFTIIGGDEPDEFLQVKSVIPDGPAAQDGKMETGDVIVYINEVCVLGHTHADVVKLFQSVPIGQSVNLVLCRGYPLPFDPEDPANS
Experiment: holdup assay
Design: key: below the threshold = too weak to quantify, mostly under pKd 3.1 to 4
Conditions: plain residues with an end cap or a label only (N-terminal biotin on a linker: ado-ado)

PEEGKKQSQC [GAGE12J, A6NER3] was tested. Which pKd did it give?
Its pKd is 3.67.

Target: T2, DFNB31_3, Q9P202
Experiment: holdup assay
Design: key: below the threshold = too weak to quantify, mostly under pKd 3.1 to 4
Conditions: plain residues with an end cap or a label only (N-terminal biotin on a linker: ado-ado)

PEEGKKQSQC [GAGE12J, A6NER3] was tested. Which pKd did it give?
The pKd was 4.

Target: LAP2, Q96RT1
Sequence (Q96RT1 other isoform, or with tags, fused parts or gaps): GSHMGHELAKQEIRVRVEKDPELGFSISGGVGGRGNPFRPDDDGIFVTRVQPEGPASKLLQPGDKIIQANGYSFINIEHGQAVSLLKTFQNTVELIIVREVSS
Experiment: holdup assay
Design: key: below the threshold = too weak to quantify, mostly under pKd 3.1 to 4
Conditions: plain residues with an end cap or a label only (N-terminal biotin on a linker: ado-ado)

How did the pKd turn out when PEEGKKQSQC [GAGE12J, A6NER3] was run?
The pKd was “below the threshold”.

Target: T3, MPP7, Q5T2T1
Experiment: holdup assay
Design: key: below the threshold = too weak to quantify, mostly under pKd 3.1 to 4
Conditions: plain residues with an end cap or a label only (N-terminal biotin on a linker: ado-ado)

PEEGKKQSQC [GAGE12J, A6NER3] was tested. Which pKd did it give?
Its pKd is “below the threshold”.

Target: Inadl_5, Q8NI35
Sequence (Q8NI35 673-780): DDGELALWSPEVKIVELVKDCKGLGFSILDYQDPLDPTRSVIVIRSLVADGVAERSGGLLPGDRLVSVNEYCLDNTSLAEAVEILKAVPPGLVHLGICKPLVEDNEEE
Experiment: holdup assay
Design: key: below the threshold = too weak to quantify, mostly under pKd 3.1 to 4
Conditions: plain residues with an end cap or a label only (N-terminal biotin on a linker: ado-ado)

With PEEGKKQSQC [GAGE12J, A6NER3] as the binder, how does the pKd read?
The pKd was “below the threshold”.

Target: PICK1, Q9NRD5
Sequence (Q9NRD5 17-115): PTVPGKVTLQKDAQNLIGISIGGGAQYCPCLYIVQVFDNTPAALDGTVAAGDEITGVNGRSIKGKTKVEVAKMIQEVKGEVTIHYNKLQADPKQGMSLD
Experiment: holdup assay
Design: key: below the threshold = too weak to quantify, mostly under pKd 3.1 to 4
Conditions: plain residues with an end cap or a label only (N-terminal biotin on a linker: ado-ado)

Which pKd does the source give for PEEGKKQSQC [GAGE12J, A6NER3] here?
The pKd was “below the threshold”.

Target: T4, DLG3_2, Q92796
Experiment: holdup assay
Design: key: below the threshold = too weak to quantify, mostly under pKd 3.1 to 4
Conditions: plain residues with an end cap or a label only (N-terminal biotin on a linker: ado-ado)

For PEEGKKQSQC [GAGE12J, A6NER3], which pKd is on record?
The pKd was 4.04.

Target: T5, PDZD2_2, O15018
Experiment: holdup assay
Design: key: below the threshold = too weak to quantify, mostly under pKd 3.1 to 4
Conditions: plain residues with an end cap or a label only (N-terminal biotin on a linker: ado-ado)

PEEGKKQSQC [GAGE12J, A6NER3] was tested. Which pKd did it give?
The pKd was 4.01.

Target: T6, DFNB31_2, Q9P202
Experiment: holdup assay
Design: key: below the threshold = too weak to quantify, mostly under pKd 3.1 to 4
Conditions: plain residues with an end cap or a label only (N-terminal biotin on a linker: ado-ado)

How did the pKd turn out when PEEGKKQSQC [GAGE12J, A6NER3] was run?
The pKd was “below the threshold”.

Target: HTRA2, O43464
Sequence (O43464 355-458): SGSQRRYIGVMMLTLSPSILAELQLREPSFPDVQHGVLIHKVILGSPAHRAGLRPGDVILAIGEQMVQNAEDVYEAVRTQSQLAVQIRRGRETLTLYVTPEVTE
Experiment: holdup assay
Design: key: below the threshold = too weak to quantify, mostly under pKd 3.1 to 4
Conditions: plain residues with an end cap or a label only (N-terminal biotin on a linker: ado-ado)

PEEGKKQSQC [GAGE12J, A6NER3] was tested. Which pKd did it give?
The pKd was “below the threshold”.

Target: SCRIB_3, Q14160
Sequence (Q14160 999-1103): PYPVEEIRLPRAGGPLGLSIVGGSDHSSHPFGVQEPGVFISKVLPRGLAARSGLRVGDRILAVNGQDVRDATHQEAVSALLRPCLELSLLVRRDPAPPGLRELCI
Experiment: holdup assay
Design: key: below the threshold = too weak to quantify, mostly under pKd 3.1 to 4
Conditions: plain residues with an end cap or a label only (N-terminal biotin on a linker: ado-ado)

For PEEGKKQSQC [GAGE12J, A6NER3], which pKd is on record?
Its pKd is “below the threshold”.

Target: T7, RADIL, Q96JH8
Experiment: holdup assay
Design: key: below the threshold = too weak to quantify, mostly under pKd 3.1 to 4
Conditions: plain residues with an end cap or a label only (N-terminal biotin on a linker: ado-ado)

How did the pKd turn out when PEEGKKQSQC [GAGE12J, A6NER3] was run?
The pKd was “below the threshold”.

Target: DLG4_3, P78352
Sequence (P78352 306-403): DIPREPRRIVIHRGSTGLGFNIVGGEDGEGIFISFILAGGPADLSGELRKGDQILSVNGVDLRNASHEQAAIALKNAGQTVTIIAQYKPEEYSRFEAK
Experiment: holdup assay
Design: key: below the threshold = too weak to quantify, mostly under pKd 3.1 to 4
Conditions: plain residues with an end cap or a label only (N-terminal biotin on a linker: ado-ado)

For PEEGKKQSQC [GAGE12J, A6NER3], which pKd is on record?
Its pKd is 3.75.

Target: MAST1, Q9Y2H9
Sequence (Q9Y2H9 962-1065): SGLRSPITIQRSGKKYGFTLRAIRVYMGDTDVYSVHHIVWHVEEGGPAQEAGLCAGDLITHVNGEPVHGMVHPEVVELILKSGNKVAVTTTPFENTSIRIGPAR
Experiment: holdup assay
Design: key: below the threshold = too weak to quantify, mostly under pKd 3.1 to 4
Conditions: plain residues with an end cap or a label only (N-terminal biotin on a linker: ado-ado)

How did the pKd turn out when PEEGKKQSQC [GAGE12J, A6NER3] was run?
Its pKd is 3.6.

Target: T8, TX1BP3, O14907
Experiment: holdup assay
Design: key: below the threshold = too weak to quantify, mostly under pKd 3.1 to 4
Conditions: plain residues with an end cap or a label only (N-terminal biotin on a linker: ado-ado)

How did the pKd turn out when PEEGKKQSQC [GAGE12J, A6NER3] was run?
The pKd was “below the threshold”.

Target: MAGI2_5, Q86UL8
Sequence (Q86UL8 915-1017): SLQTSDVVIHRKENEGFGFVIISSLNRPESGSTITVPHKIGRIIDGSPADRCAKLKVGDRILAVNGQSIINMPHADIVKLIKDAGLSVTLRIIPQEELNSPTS
Experiment: holdup assay
Design: key: below the threshold = too weak to quantify, mostly under pKd 3.1 to 4
Conditions: plain residues with an end cap or a label only (N-terminal biotin on a linker: ado-ado)

With PEEGKKQSQC [GAGE12J, A6NER3] as the binder, how does the pKd read?
The pKd was “below the threshold”.

Target: NOS1, P29475
Sequence (P29475 9-101): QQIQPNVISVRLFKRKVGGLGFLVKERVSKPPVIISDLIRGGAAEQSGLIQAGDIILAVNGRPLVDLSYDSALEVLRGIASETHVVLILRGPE
Experiment: holdup assay
Design: key: below the threshold = too weak to quantify, mostly under pKd 3.1 to 4
Conditions: plain residues with an end cap or a label only (N-terminal biotin on a linker: ado-ado)

For PEEGKKQSQC [GAGE12J, A6NER3], which pKd is on record?
The pKd was “below the threshold”.

Target: Inadl_1, Q8NI35
Sequence (Q8NI35 113-229): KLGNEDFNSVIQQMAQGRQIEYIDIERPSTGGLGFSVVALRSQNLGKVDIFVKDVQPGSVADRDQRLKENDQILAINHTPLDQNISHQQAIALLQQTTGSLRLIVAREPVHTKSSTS
Experiment: holdup assay
Design: key: below the threshold = too weak to quantify, mostly under pKd 3.1 to 4
Conditions: plain residues with an end cap or a label only (N-terminal biotin on a linker: ado-ado)

Which pKd does the source give for PEEGKKQSQC [GAGE12J, A6NER3] here?
The pKd was “below the threshold”.

Target: IL16_3, Q14005
Sequence (Q14005 1107-1207): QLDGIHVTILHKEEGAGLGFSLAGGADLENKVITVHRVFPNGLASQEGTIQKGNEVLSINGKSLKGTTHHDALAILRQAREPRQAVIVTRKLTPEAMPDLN
Experiment: holdup assay
Design: key: below the threshold = too weak to quantify, mostly under pKd 3.1 to 4
Conditions: plain residues with an end cap or a label only (N-terminal biotin on a linker: ado-ado)

How did the pKd turn out when PEEGKKQSQC [GAGE12J, A6NER3] was run?
The pKd was “below the threshold”.

Target: Inadl_6, Q8NI35
Sequence (Q8NI35 1058-1167): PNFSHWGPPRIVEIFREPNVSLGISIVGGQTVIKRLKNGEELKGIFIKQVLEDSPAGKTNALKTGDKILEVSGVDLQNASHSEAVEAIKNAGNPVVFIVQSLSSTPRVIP
Experiment: holdup assay
Design: key: below the threshold = too weak to quantify, mostly under pKd 3.1 to 4
Conditions: plain residues with an end cap or a label only (N-terminal biotin on a linker: ado-ado)

With PEEGKKQSQC [GAGE12J, A6NER3] as the binder, how does the pKd read?
Its pKd is “below the threshold”.

Target: FRMPD2_3, Q68DX3
Sequence (Q68DX3 1073-1166): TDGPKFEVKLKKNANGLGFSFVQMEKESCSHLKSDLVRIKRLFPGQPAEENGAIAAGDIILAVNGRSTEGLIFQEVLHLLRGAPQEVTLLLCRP
Experiment: holdup assay
Design: key: below the threshold = too weak to quantify, mostly under pKd 3.1 to 4
Conditions: plain residues with an end cap or a label only (N-terminal biotin on a linker: ado-ado)

Which pKd does the source give for PEEGKKQSQC [GAGE12J, A6NER3] here?
The pKd was “below the threshold”.

Target: T9, PTPN13_1, Q12923
Experiment: holdup assay
Design: key: below the threshold = too weak to quantify, mostly under pKd 3.1 to 4
Conditions: plain residues with an end cap or a label only (N-terminal biotin on a linker: ado-ado)

How did the pKd turn out when PEEGKKQSQC [GAGE12J, A6NER3] was run?
Its pKd is “below the threshold”.

Target: Inadl_4, Q8NI35
Sequence (Q8NI35 547-651): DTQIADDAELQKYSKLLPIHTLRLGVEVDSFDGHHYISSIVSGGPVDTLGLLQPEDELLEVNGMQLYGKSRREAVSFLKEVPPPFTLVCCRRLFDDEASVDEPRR
Experiment: holdup assay
Design: key: below the threshold = too weak to quantify, mostly under pKd 3.1 to 4
Conditions: plain residues with an end cap or a label only (N-terminal biotin on a linker: ado-ado)

How did the pKd turn out when PEEGKKQSQC [GAGE12J, A6NER3] was run?
The pKd was “below the threshold”.

Target: T10, DLG3_3, Q92796
Experiment: holdup assay
Design: key: below the threshold = too weak to quantify, mostly under pKd 3.1 to 4
Conditions: plain residues with an end cap or a label only (N-terminal biotin on a linker: ado-ado)

For PEEGKKQSQC [GAGE12J, A6NER3], which pKd is on record?
The pKd was “below the threshold”.

Target: T11, LIN7C, Q9NUP9
Experiment: holdup assay
Design: key: below the threshold = too weak to quantify, mostly under pKd 3.1 to 4
Conditions: plain residues with an end cap or a label only (N-terminal biotin on a linker: ado-ado)

PEEGKKQSQC [GAGE12J, A6NER3] was tested. Which pKd did it give?
The pKd was “below the threshold”.
